This data set can be described thus: soluble fraction after stress (log2 fold change); higher = more stays soluble; pooled small domains, quantitative proteomics. Particulars: stress: pH 4. In a few lines: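 Values are on a log2 scale, where higher means more of the domain stayed soluble after pH 4 stress. They are fold changes in the soluble amount of each domain from pooled custom libraries, measured by high-throughput quantitative proteomics. The fold change is taken to reflect aggregation propensity.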

For the sequence “HMVRKIRARLVLQLRAEGLSGRAIAGSQGMSRKSVTAVLDAADRAGIGWDEIAERSEGEVYALLFPGRG”, the “soluble fraction (log2)” value was -1.18.
The result for “HMVRQKYKSNFITVGDKSLTIHDWAQRLNLSQYALRNRYKEFGKEWVEKAIKTILETGDNTHIYK” reads 0.0662; that for “HMVRSLADQVYERLRRNIVSGDLAPNARIVELDIAAQMGTSQGPVREALQRLEREGLVQRRAHSATFVTD”, -0.324; that for “HMVRVSELAIEPRLVVEETATGFVGAVVRYANGLIELEDRHGAVRTFPLGPGYLVDGRPVSLVKPT”, -0.35.
Next, “HMVSEDELLARIALLPYPQAKILLEERLSHDPANAKVRQLYLELAKKSGDHTEVTRHNSLLY”: 0.0149; “HMVSKIEAPLPGIILSVDVKEGDTVKAGDKLMVMEAMKMENAILAETNGVVKSIKVKIQDSVLQGDILAEI”: -1.07.
On to “HMVSKSDVQRALEKVEPVLRKLGGSTVEKVRVMARQATLVFEMLKSWWKGEIDLPWKTVAAMTVTLLYL”, for which the “soluble fraction (log2)” value is -0.322.
In the case of “HMVSLNKTEFIAVKKASASELRDKINSLGLDVLKDATISADARTNQIIATGPKYALEQIKMLVVGLDVSS”, the “soluble fraction (log2)” value was 0.313.
Next, “HMVSLRQQVYDYLRSQMNQGELRPGSAINLGEMSSRFGISRTPLREALLQLETEGFVTIYPRKGIIVN”: -0.243; “HMVSLTGEWRPSKDALDILITKGGINPNFIDDAVPEFILYWRDRGDVSNTWDSKFIQHVRRQWQFYTGI”: -1.66; “HMVSMSFDDYVNDAKEYESEGDKDKAYNSYLEAYKLNKSSEEVLDYLIDNTEDVTLKLNYVYEYLDL”: -0.32.
“HMVSNFEAEFGRHFAIFFPGSEFTELKLRLLEEGAELIDPIRDTPFERFFFKDPNGYIFEVIDKE”: the “soluble fraction (log2)” value is -2.33.
The result for “HMVSNRMVYSDFQQKWINNQVESINVNADKMTIEVTTQDEKKYTVYAPSSMIEFLNEQYPKDDIKIEYVAP” reads -0.94.
Next, “HMVSPLEKSQSFGSFEISREFARTLGLTSARNWENWAASDSRPINIPYSPNVFYKNKGWIDWSDWLGTE”: -0.124; “HMVSRQINVIPDDLAGLRLDQALAHLFPQHSRSRLKEWLLEDIIIVQGGPKRPKDIVSGGEIVEIKL”: -1.2; “HMVSYTLPTLHTGKNWYVDFTAYDPAEQKMKRKKYMLDGISKITERRKRAVDIIATVTARLRSGWNPWA”: 0.0419.
Next, “HMVTARMPDLFGLDEATAQRMVSNAGLTLKTEYAYSDQAEGYVFDQTPEANAEVRRGGTVTAMIS”: -0.375.
Consider “HMVTEIDYGAFIKMTEEGNIGEVKIEDNQIVFTDKENKAIYKTGIMPDSDLTQRLYDSGAVFA”, for which the “soluble fraction (log2)” value is -1.27.
The result for “HMVTEKPLYRDELMDHDTVWVEPISMDSHLRMELRGWYHVKNRFVENEVGQRFYFDFYDIKWLAFTNGP” reads at least 0.43; that for “HMVTINTASLEKAIADAKAVVKESYTTDSYNAMKAVLDEAEDLLKEEAQDQDTIDAKTEALNAAIEALVKR”, -0.337.
The result for “HMVTLPLLKRGHTGLPVKALQTLLVLRGMSVDVDGSFGEKTESAVRTFQTAAKILSDGEVGKDTWKALI” reads -0.911.
For the sequence “HMVTPPMVVVDVQGEVKTPGVYHLPTNSRVNDAIKAAGGPKQSADLSYINQARMVKDGEQIYVEKKL”, the “soluble fraction (log2)” value was found to be 0.0679.
Consider “HMVTTDPIADMLTRIRNASSQKHKSVDVPASKEKLAIAQILFEEGYIKSFEEIKEENNQGVIRITLKYTEK”, for which the “soluble fraction (log2)” value was -0.0598.
Next, “HMVTVPNYSDPRQYVEWGNANGITINRAVGDTIASMSGRVQDVRDSNGNSVIGKKVKKGSTVTVYIYFLK”: -0.0785.
The result for “HMVTVSAVNITPKGHTTVGFTDRSVNPPSNYYLRVGESADGWTVKDADFDDEIATLEKDGVAITLKL” reads -0.548.
Next, “HMVTYELTEDEKFIVSLLEKENSQPIGALKDKSALSGKKWDAAMKGLAKHGLTKVVVDGDNKLVVL”: -0.184.
As for “HMVVEDDTVLQAVKQAIEENPEAVSDYFEGKSKALNFLVGQVMRITRGKADPAKTNQMVVEELKNR”, the “soluble fraction (log2)” value amounted to 0.112.

Source of the values: the domain aggregation screens of Martell et al. (2025).
